Experimental data reported in patent US20220073643A1 (NANJING GENSCRIPT BIOTECH, published 2022).
Changes are numbered by the printed parent chain.

B1: 411G3E10 (antibody, V domains shown)
VH: DVQLVESGGGLVQPGGSRKLSCAASGFTFSGFGMHWIRQTPEKGLEWVAYISSGSRPIYYADTVKGRFTISRDNPKNTLFLQMTSLRSEDTAMYFCARFYYGNSFDHWGQGTLVTVSA
VL: DIVMTQSPSFLTVTAGEKVTMNCRSSQSLLNSGNQKNYLTWYQQKPGQPPKLLIYWASTRESGVPDRFTGSGSGTDFTLTISSVQAEDLALYYCQNAYSFPLTFGAGTKLELK
B2: 203A6C9 (antibody, V domains shown)
VH: QVQLKQSGPGLVQPSQSLSITCTVSGFSLTRYGVHWVRQSPGKGLEWLGVIWSGGNTDYNAAFISRLNIRKDNSKSQVFFKMNSLKPNDTAIYYCARAAYFGNSFDYWGQGTTLTVSS
VL: B1 VL with F10S, T12P, N22S, R24K, E61D, L91V, A97N, S99I, F100Y
B3: 418B8B10 (antibody, V domains shown)
VH: B1 VH with G31S, I37V, T40A, R56S, A61T
VL: DIVMTQSPSSLTVTAGEKVSMSCKSSQSLFNRGNQKSYLTWYQQRPGQPPKLLIYWASTRESGVPDRFTGSGSGTDFTLTISSVQAEDLAVYYCQNNYIYPLTFGAGTKLELK
B4: 416F12F3 (antibody, V domains shown)
VH: DVQLVESGGGLVQPGGSRKLSCAASGFTFSSFGMHWVRQAPEKGLEWVAYISSGSSTIYYAHSVKGRFTISRDNPKNTLFLQMTSLGSEDTAMYYCARFYYGNSFAYWGQGTLVTVSA
VL: B1 VL with F10S, M21L, N22S, R24K, L52M, L91V, S99T, F100Y, K109R
B5: 413C12F8 (antibody, V domains shown)
VH: B1 VH with M34V, S52G
VL: B1 VL with K45R
B6: 419A10D4 (antibody, V domains shown)
VH: B1 VH
VL: B1 VL with N22S, R24K, K36R, I81V
B7: 203A6D5 (antibody, V domains shown)
VH: B2 VH
VL: B3 VL with T12P, S20T, F30L, R32S, S37N, R45K, E61D
B8: 418G6A5 (antibody, V domains shown)
VH: B4 VH with A23V, T57P, I58M, H62D, S63T, G87R, Y95F, F99I
VL: B1 VL with F10S, N22S, R24K, L91V, F100Y
B9: 413B1C9 (antibody, V domains shown)
VH: B1 VH with G31S, I37V, T40A, R56S
VL: B3 VL with A15T, R45K
B10: 420D5H5 (antibody, V domains shown)
VH: B1 VH with F29L, A61V, K65E, A118S
VL: B1 VL with N22S, R24K, S82R, S83G
B11: 412B6E4 (antibody, V domains shown)
VH: B4 VH with M34V, M93T
VL: B1 VL with F10S, N22S, R24K, L52M, L91V, S99T, F100Y, K109R
B12: 414A5F7 (antibody, V domains shown)
VH: B4 VH with T57P, H62D, S63T, G87R, Y95F, F99I
VL: B1 VL with F10S, T20A, N22S, R24K, S28T, I54L, L91V, S99Y, F100Y, A106S
B13: 420F12G8 (antibody, V domains shown)
VH: B1 VH with T28A, A97V
VL: B1 VL with N22T, S28N, Y55S, A86P, L102F
B14: 420H3H9 (antibody, V domains shown)
VH: B4 VH
VL: B1 VL with F10S, M21L, N22S, R24K, L52M, L91D, S99T, F100Y, K109R
B15: 419A5F3 (antibody, V domains shown)
VH: B1 VH with G54D, A97G
VL: B1 VL with M21L, N22S, K36R, L89R, A106T, K113R
B16: 414H6G2 (antibody, V domains shown)
VH: B1 VH with P41A, K65Q
VL: B1 VL with N22S, R24K
B17: 419B5G9 (antibody, V domains shown)
VH: B4 VH with S31T, S53G, S56T, Y59F, H62D, S63T, L86V, G87R, Q110P, A118T
VL: B1 VL with F10S, N22S, R24K, L52M, L91V, F100Y
B18: 420G10G3 (antibody, V domains shown)
VH: B1 VH with P41A, K65Q
VL: B1 VL with N22S, R24K
B19: 418D2F9 (antibody, V domains shown)
VH: B4 VH with S52N, S53T, H62D, S63T, G87R, F99I, A106V
VL: B1 VL with F10S, N22S, R24K, L91V, A97D, F100Y
B20: 417A6F11 (antibody, V domains shown)
VH: EVQLQQSGPELVKPGASMKISCKASGYSFTGYTMNWVKQSHGKNLEWIGLINPYNGGTSYNQKFKGKATLTVDKSSSTAYMELLSLTSEDSAVYYCARGDYWGQGTTLTVSS
VL: DIVMTQSPSSLTVTAGEKVTMSCKSSQSLLNSGNQKNYLTWYQQKPGQPPKLLIYWASTRESGVPDRFTGSGSGTDFTLTISSVQAEDLAVYYCQNDYSYPTFGAGTKLELK

Biological target: human Claudin18.2 (human)
Assay: cell-based or functional assay

Binder | CDC % Relative activity | CDC EC50
B1 | 82.2% | 3.31 µg/mL
B2 | 600% | 0.319 µg/mL
B3 | 30.8% | 5.6 µg/mL
B4 | 220% | 0.784 µg/mL
B5 | 70.9% | 3.84 µg/mL
B6 | 91.5% | 1.88 µg/mL
B7 | 571% | 0.336 µg/mL
B8 | 207% | 0.83 µg/mL
B9 | 10.4% | 26.3 µg/mL
B10 | 78.3% | 2.2 µg/mL
B11 | 577% | 0.472 µg/mL
B12 | 594% | 0.458 µg/mL
B13 | 52.6% | 3.27 µg/mL
B14 | 458% | 0.416 µg/mL
B15 | 61.7% | 2.79 µg/mL
B16 | 678% | 0.402 µg/mL
B17 | 349% | 0.494 µg/mL
B18 | 72.4% | 2.63 µg/mL
B19 | 236% | 0.73 µg/mL
B20 | 440% | 0.392 µg/mL
